According to the nanobody polyreactivity screen of Harvey et al. (2022):

Assay: yeast display, Sf9 membrane polyspecificity reagent, FACS + sequencing; frameworks hold sequencing errors
Procedure, shortened: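 After 36–48 hours of galactose induction, yeast (Saccharomyces cerevisiae BJ5465) displaying a synthetic nanobody library were stained at 4 °C for 1 hour with 10% biotinylated, detergent-solubilized Sf9 membrane reagent. Streptavidin microbeads enriched the stained cells before FACS sorting into low and high (top ~1%) gates on anti-HA and streptavidin fluorescence. Each clone's polyreactivity label reflects its gate of origin.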
With “QVQLVESGGGLVQAGGSLRLSCAASGRTVGYYGMGWYRQAPGKERELVAAITGSGGSTYYADSVKGRFTISRDNAKNTVYLQMNSLKPEDTAVYYCAATYLSRWTLYDYWGQGTQVTVSS” the “polyreactivity (PSR sort gate)” value was “high polyreactivity”. In the case of “QVQLVESGGGLVQAGGSLRLSCAASGRTVSGYSMGWYIQAPGKERELVARITSGYSTNYADSVKWRFTISRDNAKNTVYLQMNCMKPEDTAVYYCAADRVWAFWTYGYWGQGTQVTVSS”, the “polyreactivity (PSR sort gate)” value is reported as “low polyreactivity”. With “QVQLVESGGGLVQAGGSLRLSCAASGRTVWDSAMGWYRQAPGNERELVAAIASNTGSTYYADSVKGRFTISRDNAKNTVYLQLNSLKPEDTAVYYCNVEYYYDFNFNYDDYEFDYWGQGTHVTVSS” the “polyreactivity (PSR sort gate)” value was “high polyreactivity”. With “QVQLVESGGGLVQAGGSLRLSCAASGRTVYKNTMGWYRQAPGKERELVAAISIRGGSTYYADSVKGRFTISRDNAKNTVYLQMNSLKPEDTAVYYCNVVYQKAARIVDFDYWGQGTQVTVSS” the “polyreactivity (PSR sort gate)” value was “high polyreactivity”. With “QVQLVESGGGLVQAGGSLRLSCAASGRTVYVYYMGWYRQAPGKERELVAAISTNYADSVKGRCTISRDNAKNTVYFQMNSLIPEDTAVYYCAADDIHYVIHAYYSTGVDYWGQGTQVTVSS” the “polyreactivity (PSR sort gate)” value was “low polyreactivity”. In the case of “QVQLVESGGGLVQAGGSLRLSCAASGRTYFTNAMGWYRQAPGKERELVAAITGSGGSTSYADSVKVRFTISRDNAKNTVYLQMNSLKPEDTAVYYCAAEWQELEYVYWGQGTQVTVSS”, the “polyreactivity (PSR sort gate)” value is reported as “low polyreactivity”. With “QVQLVESGGGLVQAGGSLRLSCAASGRTYGIYAMGWYRQAPGKEREFVAAISWSSGGSTYYADSVKGRFTISRDNAKNTVYFQMISLKPEDTAVYYCNVDTIYNLESDYWGQGTQVTVSS” the “polyreactivity (PSR sort gate)” value was “low polyreactivity”. In the case of “QVQLVESGGGLVQAGGSLRLSCAASGRTYRFNAMGWYRQAPGKERELVAAISKSGGSTYYADSVKGRFTISRDNAKNTVYLQMNSLKPEDTAVYYCAAQTYLYEYKYWGQGTQVTVSS”, the “polyreactivity (PSR sort gate)” value is reported as “high polyreactivity”. In the case of “QVQLVESGGGLVQAGGSLRLSCAASGRTYRTYAMGWYRQAPGKEREFVAAITSSGGSTYYADSVKGRFTISRDNAKNTVDLEMNSLKPEDTAVYSCNAKRRYGPDKYDYWGQGTQVTVSS”, the “polyreactivity (PSR sort gate)” value is reported as “high polyreactivity”. With “QVQLVESGGGLVQAGGSLRLSCAASGRTYRWYVMGWYIQAPGTERELVAAISQSGGSTYYADSVKGRFTISRDNAMNTVYLEMYSLKPEDTAVYYCNAYPRYGGYAYGRGDYWGQGTQVTVSS” the “polyreactivity (PSR sort gate)” value was “high polyreactivity”. In the case of “QVQLVESGGGLVQAGGSLRLSCAASGRTYRYNAMGWYRQAPGKERELVATITRTGSTDYADSVKGRFTISRDNAKNTVYLQMNSLKPEDTAVYYCNARGVYSGRTYYYIYDYWGQGTQVTVSS”, the “polyreactivity (PSR sort gate)” value is reported as “high polyreactivity”. With “QVQLVESGGGLVQAGGSLRLSCAASGRTYSYNAMGWYRQEPGKERELVAGITYTGGRTYYADSVKGRFTISRDNAKNTVYLQMNSLKPEDTAVYYCAVGEYGHWLYRYEYWGQGTQVTVSS” the “polyreactivity (PSR sort gate)” value was “high polyreactivity”. With “QVQLVESGGGLVQAGGSLRLSCAASGRTYWPNALGWSRQARGKERELVAAISWRGGSTSYADSVKGRFTISRDNAKNTVYLQMNRLKPEDTAVYYCAATSIRRNSKVLISGRLYDYWGQGTQVTVSS” the “polyreactivity (PSR sort gate)” value was “high polyreactivity”. For “QVQLVESGGGLVQAGGSLRLSCAASGRTYYYYAMGWYRQAPGTQRELVASIRYSTGSTYYADSVKARFTISRDNAKNTVYLQKNSLKPVDTAVYYCAGLRYARASRYDYWGLGTQVTVSS”, the “polyreactivity (PSR sort gate)” value was “high polyreactivity”. With “QVQLVESGGGLVQAGGSLRLSCAASGRVFTPYAMGWYRQAPGKERELVAVIRDGSTYYADSVKGRFTISRDNAKNTVYLQMNSLKPEDTAVYYCRYDIWVWWSGAYDYWGQVTQVTVSS” the “polyreactivity (PSR sort gate)” value was “low polyreactivity”. With “QVQLVESGGGLVQAGGSLRLSCAASGSFGFYVMGWYRQAPGKERELVSAISSVGSTNYADSVKGRFTISRDNAKNTVYFQMNSLKPEDTAVYYCARRYWYPDAFYRYDYWGQGTQVTVSS” the “polyreactivity (PSR sort gate)” value was “low polyreactivity”. In the case of “QVQLVESGGGLVQAGGSLRLSCAASGSFYDRYVMGWYRQAPGKERELVAAISSSGGSTYYADSVKGRFTISRDNAKNTVYFQMNSLKPEDSAVYYCAAKFSYGRYNYWGQGTQVTVSS”, the “polyreactivity (PSR sort gate)” value is reported as “high polyreactivity”. In the case of “QVQLVESGGGLVQAGGSLRLSCAASGSIAHYAMGWYRQAPGKERELVAAINWSGGSTNYADSVKGRFTISRDNAKNTVYLQMNSLKPEDTAVYYCNAAGGYKPYLQDVASRYDYWGQGTQVTVSS”, the “polyreactivity (PSR sort gate)” value is reported as “high polyreactivity”. With “QVQLVESGGGLVQAGGSLRLSCAASGSIAKINAMGWYRQAPGKERELVAAINTGDSTYYADSVKGRFTISRDNAKNTVYLQMNSLKPEDTAVYYCAAEGSPNGYDYWGQGTQVTVSS” the “polyreactivity (PSR sort gate)” value was “low polyreactivity”. In the case of “QVQLVESGGGLVQAGGSLRLSCAASGSICGTYAMGWYRQAPGKERELVARITRGVSTNYADSVKGRFTISRDNAKNTVYLQMTSLKPEDTAVYYCAAESGNRYEYWGQGTQVTVSS”, the “polyreactivity (PSR sort gate)” value is reported as “low polyreactivity”. With “QVQLVESGGGLVQAGGSLRLSCAASGSICVRNAMGWYRQAPGKERELVAADSVKGRFTISRDNAKNTVYLQMNSLKPEDTAVYYCNKAYIIRRGPIVYYGFDYWGQGTQVTVSS” the “polyreactivity (PSR sort gate)” value was “low polyreactivity”. For “QVQLVESGGGLVQAGGSLRLSCAASGSIDGRYAMGWYRQAPGKERELVAVITSGGSTNYADSVKGRFTISRDNAKNTVYLQMKSLKPEDTAVYYCAVRPYALHRLADQPGGDDYWGQGTQVTVSS”, the “polyreactivity (PSR sort gate)” value was “low polyreactivity”. For “QVQLVESGGGLVQAGGSLRLSCAASGSIDRFYAMGWYRQAPRKERDLVAFITSTGRTYYADSVKGRFTISRDNAKNTVYLQMNSLKPEDTAVYYCAAGYPKRVAYLWFSQYDYWGKGTQVTVSS”, the “polyreactivity (PSR sort gate)” value was “low polyreactivity”. For “QVQLVESGGGLVQAGGSLRLSCAASGSIFAANALGWYRQAPGKERELVAAITSGGGSTYYADSVKGRFTISRDNAKNTVYLQMNSLKPEDTAVYYCAARSLVQDHAYGNNYWGQGTQVTVSS”, the “polyreactivity (PSR sort gate)” value was “low polyreactivity”. In the case of “QVQLVESGGGLVQAGGSLRLSCAASGSIFADYAMGWYRQAPGKERELVSAITGSGGRTYYADSVKGRFTISRDNAKNTLYLQMNSLKPEDTAVYYCAADGLSNVRQMDYWGQGTQVTVSS”, the “polyreactivity (PSR sort gate)” value is reported as “low polyreactivity”. In the case of “QVQLVESGGGLVQAGGSLRLSCAASGSIFAFNAMGWYRQAPGKERELVAAMSGSGARTYYADSVKGRFTTSRDNAKNTVYLQLNSLKPEDTAVYYCARPYGYGYDYWGQGTQVTVSS”, the “polyreactivity (PSR sort gate)” value is reported as “high polyreactivity”. In the case of “QVQLVESGGGLVQAGGSLRLSCAASGSIFAFYAKGWYRQAPGKERELVAYITSGGSTYYADSVKGRFTISRDNAKNNVYLQMNSLKPEDTAVYYFNSVYYSALVSGGETTIKRRYYWGQGTQVTVSS”, the “polyreactivity (PSR sort gate)” value is reported as “high polyreactivity”. With “QVQLVESGGGLVQAGGSLRLSCAASGSIFAGHAMGWSIQAPGKERELVAAISRRGGNTYYADSVKGRFTISRDNAKNTVYLQMNSLKPEDTAVYYCAVRSRLYSSSIAYDYWGQGTQVTVSS” the “polyreactivity (PSR sort gate)” value was “high polyreactivity”. For “QVQLVESGGGLVQAGGSLRLSCAASGSIFAGYAMGWYRQAPGKERELVAAITSRGGNTYYADSVKGRFTISRDNAKNTVYLQMNSLKPEDTAVYYCAADVTRWSWVGTHYYWGQGTQVTVSS”, the “polyreactivity (PSR sort gate)” value was “high polyreactivity”. With “QVQLVESGGGLVQAGGSLRLSCAASGSIFAHYAMGWYRQAPGKERELVARISWSGGSTYYADSVKGRFTISRDNEKNTVYLQKNSMKPEDTAVYYCARAGRSWDTLYKYYLEHDYWGQGTQVTVSS” the “polyreactivity (PSR sort gate)” value was “low polyreactivity”. For “QVQLVESGGGLVQAGGSLRLSCAASGSIFAINAMGWDRQAPGKERELVAAITRGGSTYADSVKGRFTISRDNAKNTVYLQINSLKPEDTAVYYCAARWYRRGNGFNYWGQCTQVTVSS”, the “polyreactivity (PSR sort gate)” value was “high polyreactivity”. For “QVQLVESGGGLVQAGGSLRLSCAASGSIFAIYAMGWYRQAPGKERELVAAISSSSGSTYYADSVKARFTISRDNAKNTVYLQMYSLKPEDTAVYYCAAESGRRIKYWRGYYYWGQGTQVTVSS”, the “polyreactivity (PSR sort gate)” value was “low polyreactivity”. In the case of “QVQLVESGGGLVQAGGSLRLSCAASGSIFAKNAMGWYRQAPGKERELVAGIDFSGGSTYSADSVKGRFTISRDNAQNTVYLQMNSLKPEDTAVDYCAADWAYKYELDYWGQGTQVTVSS”, the “polyreactivity (PSR sort gate)” value is reported as “low polyreactivity”. With “QVQLVESGGGLVQAGGSLRLSCAASGSIFALYAMGWSRQEPGKEREFVAAISYRGGRTYYADSVKGRFTISRDNAKNTVYLQMNSLKPEDTAVYYCDTDFPGKFDYWGQGTQVTVSS” the “polyreactivity (PSR sort gate)” value was “low polyreactivity”. With “QVQLVESGGGLVQAGGSLRLSCAASGSIFANYAMGWYRQAPGKERELVAAITFSSGDSTYYADSVKGRFTISRDNAKNTVYLQMNSLKPEDTAVDYCATVTYGWSGYDYWGQGTQVTVSS” the “polyreactivity (PSR sort gate)” value was “low polyreactivity”. With “QVQLVESGGGLVQAGGSLRLSCAASGSIFAPYVMGWYRQAPGKERELVAAITESGGRTYYADSVKGRFTISRDNAKNTVYLQMNSLKPEDTAVYYCAARTYDRNRQLRRQWYDYWGQGTQVTVSS” the “polyreactivity (PSR sort gate)” value was “high polyreactivity”. For “QVQLVESGGGLVQAGGSLRLSCAASGSIFARYAMGWYRQAPGKERELVATITRGGSTNYADSVKGRFTISRDNAKNTVYLQMNSLKPEDTAVYYCARTSYGRLDYWGQGTQVTVSS”, the “polyreactivity (PSR sort gate)” value was “low polyreactivity”. For “QVQLVESGGGLVQAGGSLRLSCAASGSIFARYTMGWYRQAPGKERELVAAISTSGSRTYYADSVKGRFTISRDNAKNCVYLLMNSLKPEDTAVYYCNVAWIWGKYDYWGPGTQVTVSS”, the “polyreactivity (PSR sort gate)” value was “high polyreactivity”. With “QVQLVESGGGLVQAGGSLRLSCAASGSIFASNAMGWYRQAPGKERELVADISGTTGSTYYADSVKGRFTISRDNAKNTVYLQMNSLKPEDTAVYYCAADLVWVSTSYYYWGQGTLVTVSS” the “polyreactivity (PSR sort gate)” value was “low polyreactivity”. With “QVQLVESGGGLVQAGGSLRLSCAASGSIFASNAMGWYSPAPGKERELVAAINSGDSTNYADSVKGRFTISRDNAKNTVYLQMNSLKPEDTAVYYCARGLEERYDYWGQGTQVTVSS” the “polyreactivity (PSR sort gate)” value was “low polyreactivity”. In the case of “QVQLVESGGGLVQAGGSLRLSCAASGSIFASYAMGWYRQAPGKERELVAAISRSGTSTRYADSVKGRFTISRDNAKNTVYLLMNSLKPEDTAVYYCAARWYVFFRKYDYWGQGTQVTVSS”, the “polyreactivity (PSR sort gate)” value is reported as “high polyreactivity”. In the case of “QVQLVESGGGLVQAGGSLRLSCAASGSIFASYGLGWYRQAPGKARELVAAITSRGTSTYYADSVKGRFTISRDNAKNTVDLQMHSLKPEETAVYYCAARLYGSAPQHEYWGQGTQVTVSS”, the “polyreactivity (PSR sort gate)” value is reported as “low polyreactivity”. In the case of “QVQLVESGGGLVQAGGSLRLSCAASGSIFATYAMGWYRQAPGKERELVAAITASDGSTNYADSVKGRFTLSRDNAQNTVYLQMNSLKPEDTAVYYCATDAPYRTDSDSGFDAGYDYWGQGTQVTLSS”, the “polyreactivity (PSR sort gate)” value is reported as “low polyreactivity”.
